Legend:
[1] = target: T1, cell surface expressed human PAR-2 (Homo sapiens, UniProt P55085); assay: KinExA binding to cell surface expressed PAR-2; conditions: initial analysis, 95% confidence interval of 1.36 to 5.47 nM, N=2 experiments
T1 construct: expressed in transfected cells; host or cells: CHO cells
T1 sequence (P55085 26-397): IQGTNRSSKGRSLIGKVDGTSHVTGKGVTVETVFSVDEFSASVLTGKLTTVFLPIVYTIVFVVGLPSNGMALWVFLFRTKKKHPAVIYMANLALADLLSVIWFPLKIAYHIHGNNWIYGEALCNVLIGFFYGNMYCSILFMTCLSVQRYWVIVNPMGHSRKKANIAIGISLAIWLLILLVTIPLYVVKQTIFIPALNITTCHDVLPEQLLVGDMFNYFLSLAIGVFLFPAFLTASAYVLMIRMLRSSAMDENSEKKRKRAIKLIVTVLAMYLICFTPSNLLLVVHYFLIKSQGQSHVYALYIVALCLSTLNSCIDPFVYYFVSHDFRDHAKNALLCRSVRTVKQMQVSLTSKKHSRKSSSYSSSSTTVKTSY
Excerpt: This example describes the analysis of the binding properties of PAR-2 antigen-binding proteins to cell surface expressed PAR-2 utilizing a Kinetic Exclusion Assay which measures binding events in solution phase and can be used to calculate KD, Kon and Koff (KinExA®; Sapidyne Instruments, Boise, Id.), substantially as described previously by Xie et. al. J. Imm, Methods 304:1 (2005) and Rathanaswami et. al. Anal. Biochem. 373:52 (2008). Briefly, serial dilutions of cells expressing human PAR-2 (for example, CHO transfectants expressing human PAR-2 at the cell surface, obtainable by transfecting CHO cells with human full length PAR-2 cDNA encoding a polypeptide of SEQ ID NO:2) and control cells (i.e., non-transfected CHO cells) in a modified DMEM medium (phenol red free containing 10% heat inactivated FBS, 0.1 mM MEM non-essential amino acids, 1 mM sodium pyruvate, penicillin-streptomycin-glutamine, and 0.025% (w/w) sodium azide) are incubated with set amounts of antibody for 24 to 36 hours at 4 C with rotation. […] The free mAb is measured by KinExA® using the appropriate capture beads and Cy5-conjugated anti-human secondary antibodies, as described by Rathanaswami et al. Biochem Biophys Research Commun: 1004 (2005). […]
The KD of certain PAR-2 antibodies was determined in this manner.

[2] = target: T2, N-terminal PAR-2/Fc (full length and truncated) (Homo sapiens, UniProt P55085); assay: Western blot, binding to uncleaved versus clipped N-terminal PAR-2/Fc; conditions: upstream binder binds only full-length PAR-2/Fc
T2 construct: made in house; host or cells: CHO cells (10% FCS for uncleaved; serum-free for clipped)
Excerpt: N-terminal PAR-2/Fc polypeptide (SEQ ID NO:6) is expressed in suitable mammalian cells such as CHO cells. Expression supernatant from CHO expression cells cultured in serum-free media contain a CHO cell trypsin-like serine protease that cleaves PAR-2/Fc at the activation Arg-Ser bond, generating the “clipped” version of the PAR-2/Fc polypeptide. CHO expression cells cultured in 10% fetal calf serum (which contains normal levels of plasma proteinase inhibitors at concentrations far in excess of the concentration of the CHO cell trypsin-like serine protease) express uncleaved N-terminal PAR-2/Fc in culture supernatants. Both clipped and uncleaved proteins are purified using methods that are suitable for isolation and purification of proteins comprising an Fc regions (for example, using a MabSelect™ resin systems, from GE Healthcare, Piscataway, N.J.)). The resultant purified Fc-constructs are analyzed by amino terminal sequence analysis (Edman degradation), size exclusion chromatrography, absorbance spectral scan, and mass spectroscopy, as needed.
To analyze binding to uncleaved versus cleaved PAR-2, various amounts of purified uncleaved and clipped N-terminal PAR2-Fc are subjected to SDS-PAGE using 8-16% polyacrylamide gradient gels (Novex gels, Invitrogen Life Technologies) in a Tris-Glycine buffer system. Gel lanes containing See Blue standards (Novex, Invitrogen Life Technologies) for molecular weight identification are also included. Following electrophoresis, proteins are transferred from gels onto nitrocellulose membranes using a Novex XCell II Blot Module (Invitrogen Life Technologies). Membranes are blocked with 1:1, Odyssey blocking buffer, OBB, (LI-COR Biosciences):TBS (Tris Buffer Saline) overnight at 4 C with shaking. Antibodies to be analyzed are diluted in 1:1 OBB:TBS at a desired final concentration for 1 hr at room temperature. Membranes are washed extensively with 0.1% Tween 20 in TBS (3-4 changes of 100 ml over ˜1 hr). Membranes are then exposed to the appropriate secondary antibody-Alexa680 (Molecular Probes, Invitrogen Life Technologies) conjugate (goat anti-rabbit IgG, or goat anti-mouse IgG) diluted 1:5000 in 1:1 (OBB:TBS) for 1 hr at room temperature. Membranes are washed as described above, and if desired, analyzed using a LI-COR Odyssey Infrared Imaging System (LI-COR Biosciences).
Several PAR-2 antibodies were tested in different assay formats; Table 2 summarizes the results. IC50 values were determined in a FLIPR assay for Ca2+ mobilization described previously; binding to the upstream region of the cleavage site versus the downstream region of the cleavage site was determined using the Western blot assay described previously.

T2 sequence (P55085 with tags, fused parts or gaps limits assumed): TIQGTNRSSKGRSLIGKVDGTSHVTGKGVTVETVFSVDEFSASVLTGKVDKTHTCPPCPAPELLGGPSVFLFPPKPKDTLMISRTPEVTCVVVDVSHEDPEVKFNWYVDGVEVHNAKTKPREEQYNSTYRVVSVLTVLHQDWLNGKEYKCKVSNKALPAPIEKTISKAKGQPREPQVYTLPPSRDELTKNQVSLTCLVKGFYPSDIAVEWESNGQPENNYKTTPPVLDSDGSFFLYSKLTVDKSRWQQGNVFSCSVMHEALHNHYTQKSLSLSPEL

B1: 1B5: anti-PAR-2 monoclonal antibody; heavy SEQ ID NO: 13, light SEQ ID NO: 15 (antibody, listed as Homo sapiens)
heavy: EVQLVQSGAEVKKSGESLKISCKGSGYSFSNYWIGWVRQMPGKGLEWMGIIYPGDSDTRYSPSFQGQVTISADKSIRTAYLQWSSLKASDTAMYYCARHKGITGTTFYYDYGMDVWGQGTTVTVSS
light: SYELTQPPSVSVSPGQTARITCSGEALPKQYASWYQQKPGQAPVLVIYRDTERPSGIPERFSGSSSGTTVTLTISGVQAEDEADYYCQSADSNGAYVFGTGTRVTVL
Kd [1]: 3.39 nM | Binding to Cleavage Site Up stream [2]: xxx
